Where “and” joins values, the source holds several entries; their conditions need not be identical. Identical values can stand only once.
Assays:
Test in all cases: cell-based or functional assay
[1] = target: T1, G protein of rabies virus CVS-11 strain (on virus) (rabies virus CVS-11 strain, UniProt O92284 20-524)
T1 sequence: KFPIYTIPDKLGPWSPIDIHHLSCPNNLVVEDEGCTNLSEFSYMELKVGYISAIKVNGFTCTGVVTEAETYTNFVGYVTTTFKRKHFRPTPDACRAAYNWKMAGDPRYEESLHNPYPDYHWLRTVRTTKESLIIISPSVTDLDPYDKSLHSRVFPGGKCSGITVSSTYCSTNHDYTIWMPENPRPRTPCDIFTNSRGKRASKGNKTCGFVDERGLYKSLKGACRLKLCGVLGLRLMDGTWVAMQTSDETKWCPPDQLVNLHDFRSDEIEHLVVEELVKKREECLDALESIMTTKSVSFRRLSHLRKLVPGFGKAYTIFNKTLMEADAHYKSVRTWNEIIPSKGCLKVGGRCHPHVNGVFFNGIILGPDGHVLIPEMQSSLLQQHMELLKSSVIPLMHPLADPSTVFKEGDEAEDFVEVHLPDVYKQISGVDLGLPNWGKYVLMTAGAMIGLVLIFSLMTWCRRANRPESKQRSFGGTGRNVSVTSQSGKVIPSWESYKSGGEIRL

[2] = target: G protein of rabies virus AZ Bat (Bat, Arizona), on virus (rabies virus)
[3] = target: G protein of rabies virus Rv342 China (Cow/dog, China), on virus (rabies virus)
[4] = target: G protein of rabies virus TX SK 4384 (Skunk, Texas, USA), on virus (rabies virus)
[5] = target: G protein of rabies virus AK FX (Arctic Fox, Alaska, USA), on virus (rabies virus)
[6] = target: G protein of rabies virus Gray FX-AZ (AZ fox) (Gray Fox, Arizona, USA), on virus (rabies virus)
[7] = target: G protein of rabies virus 323R (Dog/Coyote, Texas, USA), on virus (rabies virus)
[8] = target: G protein of rabies virus RVHN (Human (ex, wolf), Russia, Arctic), on virus (rabies virus)
[9] = target: G protein of rabies virus Dog Tun (Dog, Tunisia), on virus (rabies virus)
[10] = target: G protein of rabies virus China dog 2005 (Dog, China), on virus (rabies virus)
[11] = target: G protein of rabies virus TN410 (Bat, Tennessee, USA), on virus (rabies virus)
[12] = target: G protein of rabies virus TX SK 4380 (Skunk, Texas, USA), on virus (rabies virus)
[13] = target: G protein of rabies virus RAC (Raccoon, Georgia, USA), on virus (rabies virus)
[14] = target: G protein of rabies virus Sri Lanka (Cow, Sri Lanka), on virus (rabies virus)
[15] = target: G protein of Wu ABLV (Australian bat lyssa, Genotype 7), on virus (Australian bat lyssa, Genotype 7)
[16] = target: G protein of rabies virus Dog thai (Dog, Thailand), on virus (rabies virus)
[17] = target: G protein of ABV (SM 4476) (Australian bat lyssa, Genotype 7), on virus (Australian bat lyssa, Genotype 7)
[18] = target: G protein of rabies virus Gabon dog (Dog, Gabon), on virus (rabies virus)
[19] = target: G protein of Duvenhage (Genotype 4), on virus (Duvenhage, Genotype 4)
[20] = target: G protein of rabies virus Bat Ef (Bat, Pennsylvania, USA), on virus (rabies virus)
[21] = target: G protein of rabies virus Dog son (Dog, Mexico), on virus (rabies virus)
[22] = target: G protein of rabies virus C1434 (Bat, Alabama, USA), on virus (rabies virus)
[23] = target: G protein of rabies virus TN 132 (Bat, Tennessee, USA), on virus (rabies virus)
[24] = target: G protein of rabies virus MI1625 (Bat, Tennessee, USA), on virus (rabies virus)
[25] = target: G protein of rabies virus Myotis (Bat, Washington, USA), on virus (rabies virus)
[26] = target: G protein of rabies virus DR MX (Bat, Mexico), on virus (rabies virus)
[27] = target: G protein of rabies virus WA Bat (Bat, Washington, USA), on virus (rabies virus)

B1: antibody 1 (antibody, V domains shown)
VH: VQLLQESGPGLAKPSETLSLICTVSGGSISRRRDYWGWIRQPPGRGLEWIGSFFHRGSTYYNPSLESRVSISVDPSKNQFSLHLSSVTVADTAVYYCARHPSTPFAEYLLLPDAFDSWGQGTLVTVSS
VL: DIVMTQSPATLSVSPGERATLSCRASQSVRSSLAWYQQRPGQAPRLLISGASTRATDIPARLSGSGSGTEFTLTVSSLQSEDFAVYYCQQYSDWPLTFGGGTKVEIKR
[1]
  neutralizing activity (RFFIT): 0.41 IU/mL and 2060 IU/mg
  neutralizing activity (RFFIT), Titer: 70
[2]
  neutralizing activity (RFFIT): 1.1 IU/mL and 1090 IU/mg
  neutralizing activity (RFFIT), Titer: 125
[3]
  neutralizing activity (RFFIT): 0.5 IU/mL and 2540 IU/mg
  neutralizing activity (RFFIT), Titer: 280
[4]
  neutralizing activity (RFFIT): 1070 IU/mg and 0.21 IU/mL
  neutralizing activity (RFFIT), Titer: 75
[5]
  neutralizing activity (RFFIT): 0.44 IU/mL and 2220 IU/mg
  neutralizing activity (RFFIT), Titer: 60
[6]
  neutralizing activity (RFFIT): 0.53 IU/mL and 2670 IU/mg
  neutralizing activity (RFFIT), Titer: 16
[7]
  neutralizing activity (RFFIT): 0.33 IU/mL and 1670 IU/mg
  neutralizing activity (RFFIT), Titer: 60
[8]
  neutralizing activity (RFFIT): 0.4 IU/mL and 2000 IU/mg
  neutralizing activity (RFFIT), Titer: 54
[9]
  neutralizing activity (RFFIT): 2.3 IU/mL and 2300 IU/mg
  neutralizing activity (RFFIT), Titer: 230
[10]
  neutralizing activity (RFFIT): 0.43 IU/mL and 2140 IU/mg
  neutralizing activity (RFFIT), Titer: 12
[11]
  neutralizing activity (RFFIT): 0.51 IU/mL and 2530 IU/mg
  neutralizing activity (RFFIT), Titer: 19
[12]
  neutralizing activity (RFFIT): 0.4 IU/mL and 2000 IU/mg
  neutralizing activity (RFFIT), Titer: 50
[13]
  neutralizing activity (RFFIT): 0.7 IU/mL and 3520 IU/mg
  neutralizing activity (RFFIT), Titer: 95
[14]
  neutralizing activity (RFFIT): 0.43 IU/mL and 2160 IU/mg
  neutralizing activity (RFFIT), Titer: 54
[15]
  neutralizing activity (RFFIT): 0.38 IU/mL and 1920 IU/mg
  neutralizing activity (RFFIT), Titer: 250
[16]
  neutralizing activity (RFFIT): 2.3 IU/mL and 2290 IU/mg
  neutralizing activity (RFFIT), Titer: 320
[17]
  neutralizing activity (RFFIT): 0.4 IU/mL and 2000 IU/mg
  neutralizing activity (RFFIT), Titer: 54
[18]
  neutralizing activity (RFFIT): 0.41 IU/mL and 2030 IU/mg
  neutralizing activity (RFFIT), Titer: 65
[19]
  neutralizing activity (RFFIT): 0.44 IU/mL and 2200 IU/mg
  neutralizing activity (RFFIT), Titer: 13
[20]
  neutralizing activity (RFFIT): 1.05 IU/mL and 5260 IU/mg
  neutralizing activity (RFFIT), Titer: 50
[21]
  neutralizing activity (RFFIT): 2.7 IU/mL and 2720 IU/mg
  neutralizing activity (RFFIT), Titer: 340
[22]
  neutralizing activity (RFFIT): 0.51 IU/mL and 2530 IU/mg
  neutralizing activity (RFFIT), Titer: 19
[23]
  neutralizing activity (RFFIT): 2 IU/mL and 10000 IU/mg
  neutralizing activity (RFFIT), Titer: 56
[24]
  neutralizing activity (RFFIT): 0.39 IU/mL and 1960 IU/mg
  neutralizing activity (RFFIT), Titer: 11
[25]
  neutralizing activity (RFFIT): 1.64 IU/mL and 8210 IU/mg
  neutralizing activity (RFFIT), Titer: 230
[26]
  neutralizing activity (RFFIT): 2.4 IU/mL and 2380 IU/mg
  neutralizing activity (RFFIT), Titer: 250
[27]
  neutralizing activity (RFFIT): 2.2 IU/mL and 2160 IU/mg
  neutralizing activity (RFFIT), Titer: 270

B2: antibody 2 (antibody, V domains shown)
VH: EVQLVESGAEVKKPGASVKVSCKASGYTFTSYDISWVRQAPGQGLEWMGWISTYKGNTNFAQKFQDRVTLTTDTSTTTAYMELRSLTSDDTAVYYCARAKSHPFYDFWSAYYVPGAFDIWGQGTVVTVSS
VL: not shown
[1]
  neutralizing activity (RFFIT): 1.47 IU/mL and 7350 IU/mg
  neutralizing activity (RFFIT), Titer: 250
[2]
  neutralizing activity (RFFIT): 11.3 IU/mL and 11300 IU/mg
  neutralizing activity (RFFIT), Titer: 1300
[3]
  neutralizing activity (RFFIT): 2.4 IU/mL and 11800 IU/mg
  neutralizing activity (RFFIT), Titer: 1300
[4]
  neutralizing activity (RFFIT): 3570 IU/mg and 0.71 IU/mL
  neutralizing activity (RFFIT), Titer: 250
[5]
  neutralizing activity (RFFIT): 2 IU/mL and 10000 IU/mg
  neutralizing activity (RFFIT), Titer: 270
[6]
  neutralizing activity (RFFIT): 5.67 IU/mL and 28300 IU/mg
  neutralizing activity (RFFIT), Titer: 170
[7]
  neutralizing activity (RFFIT): 3.47 IU/mL and 17400 IU/mg
  neutralizing activity (RFFIT), Titer: 625
[8]
  neutralizing activity (RFFIT): 0.31 IU/mL and 1560 IU/mg
  neutralizing activity (RFFIT), Titer: 42
[9]
  neutralizing activity (RFFIT): 2.7 IU/mL and 2700 IU/mg
  neutralizing activity (RFFIT), Titer: 270
[10]
  neutralizing activity (RFFIT): 0.46 IU/mL and 2320 IU/mg
  neutralizing activity (RFFIT), Titer: 13
[11]
  neutralizing activity (RFFIT): 5.33 IU/mL and 26700 IU/mg
  neutralizing activity (RFFIT), Titer: 200
[12]
  neutralizing activity (RFFIT): 0.56 IU/mL and 2800 IU/mg
  neutralizing activity (RFFIT), Titer: 70
[13]
  neutralizing activity (RFFIT): 1.07 IU/mL and 5370 IU/mg
  neutralizing activity (RFFIT), Titer: 145
[14]
  neutralizing activity (RFFIT): 0.4 IU/mL and 2000 IU/mg
  neutralizing activity (RFFIT), Titer: 50
[15]
  neutralizing activity (RFFIT): 0.68 IU/mL and 3380 IU/mg
  neutralizing activity (RFFIT), Titer: 440
[16]
  neutralizing activity (RFFIT): 9.3 IU/mL and 9290 IU/mg
  neutralizing activity (RFFIT), Titer: 1300
[17]
  neutralizing activity (RFFIT): 1.56 IU/mL and 7780 IU/mg
  neutralizing activity (RFFIT), Titer: 210
[18]
  neutralizing activity (RFFIT): 1.06 IU/mL and 5310 IU/mg
  neutralizing activity (RFFIT), Titer: 170
[19]
  neutralizing activity (RFFIT): 7.2 IU/mL and 36000 IU/mg
  neutralizing activity (RFFIT), Titer: 180
[20]
  neutralizing activity (RFFIT): 1.05 IU/mL and 5260 IU/mg
  neutralizing activity (RFFIT), Titer: 50
[21]
  neutralizing activity (RFFIT): 8.8 IU/mL and 8800 IU/mg
  neutralizing activity (RFFIT), Titer: 1100
[22]
  neutralizing activity (RFFIT): 0.96 IU/mL and 4800 IU/mg
  neutralizing activity (RFFIT), Titer: 36
[23]
  neutralizing activity (RFFIT): 10 IU/mL and 50000 IU/mg
  neutralizing activity (RFFIT), Titer: 280
[24]
  neutralizing activity (RFFIT): 2.5 IU/mL and 12500 IU/mg
  neutralizing activity (RFFIT), Titer: 70
[25]
  neutralizing activity (RFFIT): 2 IU/mL and 10000 IU/mg
  neutralizing activity (RFFIT), Titer: 280
[26]
  neutralizing activity (RFFIT): 1.7 IU/mL and 1710 IU/mg
  neutralizing activity (RFFIT), Titer: 180
[27]
  neutralizing activity (RFFIT): 2 IU/mL and 2000 IU/mg
  neutralizing activity (RFFIT), Titer: 250
